Results on five molecules are retold here after article PMC7666158 (2020).

Experiment [1] has as its target T1, JNK1-dc20 (JNK1 with the C-terminal 20 residues truncated) (human, UniProt P45983 1-427). As to the kind of experiment: FP.
The target in experiment [2] is T1, JNK1-dc20 (JNK1 with the C-terminal 20 …). In words: FP; EDTA.
Experiment [3] shares this target. In words: ITC.
For experiment [4] the target is unchanged. As to the kind of experiment: ITC; 2 mM EDTA.

T1 sequence (P45983 other isoform, or with tags, fused parts or gaps): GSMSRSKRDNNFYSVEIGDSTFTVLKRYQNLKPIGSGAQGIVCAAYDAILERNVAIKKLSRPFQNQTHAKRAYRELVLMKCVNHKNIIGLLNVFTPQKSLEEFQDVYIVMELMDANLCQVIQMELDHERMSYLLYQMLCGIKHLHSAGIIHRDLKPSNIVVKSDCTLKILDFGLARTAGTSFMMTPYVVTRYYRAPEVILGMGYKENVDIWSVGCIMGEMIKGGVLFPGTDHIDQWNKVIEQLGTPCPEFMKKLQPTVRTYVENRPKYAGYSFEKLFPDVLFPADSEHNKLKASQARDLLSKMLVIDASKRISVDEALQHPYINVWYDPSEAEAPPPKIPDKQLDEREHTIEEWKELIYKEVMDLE

B1: MBP-c-Jun(1–78) (domain or fragment)
chain: MTAKMETTFYDDALNASFLPSESGPYGYSNPKILKQSMTLNLADPVGSLKPHLRAKNSDLLTSPDVGLLKLASPELER
What is called Kd is the concentration at which binding is half-saturated. A lower Kd goes with a tighter complex. For the molecule B1, the values for the Kd in experiment [1] and in experiment [2] were 3.8 µM and 4.9 µM, respectively.

B2: MBP-c-Jun(1–78) K35E (domain or fragment)
chain: MTAKMETTFYDDALNASFLPSESGPYGYSNPKILEQSMTLNLADPVGSLKPHLRAKNSDLLTSPDVGLLKLASPELER
Take B2: the Kd in experiment [1] turned out to be 55 µM.

B3: MBP-ATF2(19–100) (domain or fragment)
chain: MSDDKPFLCTAPGCGQRFTNEDHLAVHKHKHEMTLKFGPARNDSVIVADQTPTPTRFLKNCEEVGLFNELASPFENEFKKAS
As for B3, the Kd turned out to be 3.5 µM in experiment [1] and 53 µM in experiment [2]. On to MSDDKPFLCTAPGCGQRFTNEDHLAVHKHKHEMTLKFGPA (domain or fragment) [ATF2(19–58)-His6 (MBP removed, for ITC)], for which the figures for the Kd in experiment [3] and in experiment [4] were 5.1 µM and 48 µM, respectively. In turn, MSDDKPFLCTAPGCGQRFTNEDHLAVHKHKHEMTLKFGPA (domain or fragment) [ATF2(19–58) as used in the competitive fluorescence polarisation assay] came in with a Kd in experiment [1] of 4.5 µM.
